Results as given in article PMC7998035, “Restoration of the healing microenvironment in diabetic wounds with matrix-binding IL-1 receptor antagonist” (Communications Biology, 2021).

B2: human fibrinogen (complex)
chain 1: ADSGEGDFLAEGGGVRGPRVVERHQSACKDSDWPFCSDEDWNYKCPSGCRMKGLIDEVNQDFTNRINKLKNSLFEYQKNNKDSHSLTTNIMEILRGDFSSANNRDNTYNRVSEDLRSRIEVLKRKVIEKVQHIQLLQKNVRAQLVDMKRLEVDIDIKIRSCRGSCSRALAREVDLKDYEDQQKQLEQVIAKDLLPSRDRQHLPLIKMKPVPDLVPGNFKSQLQKVPPEWKALTDMPQMRMELERPGGNEITRGGSTSYGTGSETESPRNPSSAGSWNSGSSGPGSTGNRNPGSSGTGGTATWKPGSSGPGSTGSWNSGSSGTGSTGNQNPGSPRPGSTGTWNPGSSERGSAGHWTSESSVSGSTGQWHSESGSFRPDSPGSGNARPNNPDWGTFEEVSGNVSPGTRREYHTEKLVTSKGDKELRTGKEKVTSGSTTTTRRSCSKTVTKTVIGPDGHKEVTKEVVTSEDGSDCPEAMDLGTLSGIGTLDGFRHRHPDEAAFFDTASTGKTFPGFFSPMLGEFVSETESRGSESGIFTNTKESSSHHPGIAEFPSRGKSSSYSKQFTSSTSYNRGDSTFESKSYKMADEAGSEADHEGTHSTKRGHAKSRPV
chain 2: QGVNDNEEGFFSARGHRPLDKKREEAPSLRPAPPPISGGGYRARPAKAAATQKKVERKAPDAGGCLHADPDLGVLCPTGCQLQEALLQQERPIRNSVDELNNNVEAVSQTSSSSFQYMYLLKDLWQKRQKQVKDNENVVNEYSSELEKHQLYIDETVNSNIPTNLRVLRSILENLRSKIQKLESDVSAQMEYCRTPCTVSCNIPVVSGKECEEIIRKGGETSEMYLIQPDSSVKPYRVYCDMNTENGGWTVIQNRQDGSVDFGRKWDPYKQGFGNVATNTDGKNYCGLPGEYWLGNDKISQLTRMGPTELLIEMEDWKGDKVKAHYGGFTVQNEANKYQISVNKYRGTAGNALMDGASQLMGENRTMTIHNGMFFSTYDRDNDGWLTSDPRKQCSKEDGGGWWYNRCHAANPNGRYYWGGQYTWDMAKHGTDDGVVWMNWKGSWYSMRKMSMKIRPFFPQQ
chain 3: YVATRDNCCILDERFGSYCPTTCGIADFLSTYQTKVDKDLQSLEDILHQVENKTSEVKQLIKAIQLTYNPDESSKPNMIDAATLKSRKMLEEIMKYEASILTHDSSIRYLQEIYNSNNQKIVNLKEKVAQLEAQCQEPCKDTVQIHDITGKDCQDIANKGAKQSGLYFIKPLKANQQFLVYCEIDGSGNGWTVFQKRLDGSVDFKKNWIQYKEGFGHLSPTGTTEFWLGNEKIHLISTQSAIPYALRVELEDWNGRTSTADYAMFKVGPEADKYRLTYAYFAGGDAGDAFDGFDFGDDPSDKFFTSHNGMQFSTWDNDNDKFEGNCAEQDGSGWWMNKCHAGHLNGVYYQGGTYSKASTPNGYDNGIIWATWKTRWYSMKKTTMKIIPFNRLTIGEGQQHHLGGAKQAGDV
modifications: Plasma-derived intact fibrinogen (Enzyme Research Laboratories), fibrinopeptides A and B retained; disulfide-linked (AαBβγ)2 hexamer, N-glycosylated, Ca2+-bound. By convention, the major circulating …

What was measured:
Experiment in all cases: ELISA; ECM protein coated on the plate (100 nM in PBS, 1 h, 37 °C), blocked with 1% BSA in PBS-T; IL-1Ra or PDGF-BB variants at 0 to 100 nM in PBS-T with 0.1% BSA, 1 h, room temperature; bound protein detected with biotinylated antibodies (DuoSet); specific binding fitted with a one site-specific binding model; means of 3 independent experiments
Details in all cases: both partners purified
human tenascin C = target: T1, human tenascin C (human, UniProt P24821 23-2201)
T1 construct: tenascin C, human; also called TnC; source: bought: R&D Systems

human plasma fibronectin = human plasma fibronectin (human)
human fibrinogen = target: B2
human vitronectin = target: T2, human vitronectin (human, UniProt P04004 20-478)
T2 construct: vitronectin, human; also called Vn; source: bought: Peprotech

IL-1Ra/PlGF123-141 = target: T3, IL-1Ra/PlGF123-141
T3 construct: interleukin-1 receptor antagonist; source: E. coli BL21 (DE3), pET-22b, soluble fraction purified (chelating SFF(Ni) column)

PDGF-BB/PlGF123-141 = target: T4, PDGF-BB/PlGF123-141
T4 construct: platelet-derived growth factor subunit B; also called engineered PDGF-BB

Sequence of human plasma fibronectin (human) (P02751 other isoform, or with tags, fused parts or gaps): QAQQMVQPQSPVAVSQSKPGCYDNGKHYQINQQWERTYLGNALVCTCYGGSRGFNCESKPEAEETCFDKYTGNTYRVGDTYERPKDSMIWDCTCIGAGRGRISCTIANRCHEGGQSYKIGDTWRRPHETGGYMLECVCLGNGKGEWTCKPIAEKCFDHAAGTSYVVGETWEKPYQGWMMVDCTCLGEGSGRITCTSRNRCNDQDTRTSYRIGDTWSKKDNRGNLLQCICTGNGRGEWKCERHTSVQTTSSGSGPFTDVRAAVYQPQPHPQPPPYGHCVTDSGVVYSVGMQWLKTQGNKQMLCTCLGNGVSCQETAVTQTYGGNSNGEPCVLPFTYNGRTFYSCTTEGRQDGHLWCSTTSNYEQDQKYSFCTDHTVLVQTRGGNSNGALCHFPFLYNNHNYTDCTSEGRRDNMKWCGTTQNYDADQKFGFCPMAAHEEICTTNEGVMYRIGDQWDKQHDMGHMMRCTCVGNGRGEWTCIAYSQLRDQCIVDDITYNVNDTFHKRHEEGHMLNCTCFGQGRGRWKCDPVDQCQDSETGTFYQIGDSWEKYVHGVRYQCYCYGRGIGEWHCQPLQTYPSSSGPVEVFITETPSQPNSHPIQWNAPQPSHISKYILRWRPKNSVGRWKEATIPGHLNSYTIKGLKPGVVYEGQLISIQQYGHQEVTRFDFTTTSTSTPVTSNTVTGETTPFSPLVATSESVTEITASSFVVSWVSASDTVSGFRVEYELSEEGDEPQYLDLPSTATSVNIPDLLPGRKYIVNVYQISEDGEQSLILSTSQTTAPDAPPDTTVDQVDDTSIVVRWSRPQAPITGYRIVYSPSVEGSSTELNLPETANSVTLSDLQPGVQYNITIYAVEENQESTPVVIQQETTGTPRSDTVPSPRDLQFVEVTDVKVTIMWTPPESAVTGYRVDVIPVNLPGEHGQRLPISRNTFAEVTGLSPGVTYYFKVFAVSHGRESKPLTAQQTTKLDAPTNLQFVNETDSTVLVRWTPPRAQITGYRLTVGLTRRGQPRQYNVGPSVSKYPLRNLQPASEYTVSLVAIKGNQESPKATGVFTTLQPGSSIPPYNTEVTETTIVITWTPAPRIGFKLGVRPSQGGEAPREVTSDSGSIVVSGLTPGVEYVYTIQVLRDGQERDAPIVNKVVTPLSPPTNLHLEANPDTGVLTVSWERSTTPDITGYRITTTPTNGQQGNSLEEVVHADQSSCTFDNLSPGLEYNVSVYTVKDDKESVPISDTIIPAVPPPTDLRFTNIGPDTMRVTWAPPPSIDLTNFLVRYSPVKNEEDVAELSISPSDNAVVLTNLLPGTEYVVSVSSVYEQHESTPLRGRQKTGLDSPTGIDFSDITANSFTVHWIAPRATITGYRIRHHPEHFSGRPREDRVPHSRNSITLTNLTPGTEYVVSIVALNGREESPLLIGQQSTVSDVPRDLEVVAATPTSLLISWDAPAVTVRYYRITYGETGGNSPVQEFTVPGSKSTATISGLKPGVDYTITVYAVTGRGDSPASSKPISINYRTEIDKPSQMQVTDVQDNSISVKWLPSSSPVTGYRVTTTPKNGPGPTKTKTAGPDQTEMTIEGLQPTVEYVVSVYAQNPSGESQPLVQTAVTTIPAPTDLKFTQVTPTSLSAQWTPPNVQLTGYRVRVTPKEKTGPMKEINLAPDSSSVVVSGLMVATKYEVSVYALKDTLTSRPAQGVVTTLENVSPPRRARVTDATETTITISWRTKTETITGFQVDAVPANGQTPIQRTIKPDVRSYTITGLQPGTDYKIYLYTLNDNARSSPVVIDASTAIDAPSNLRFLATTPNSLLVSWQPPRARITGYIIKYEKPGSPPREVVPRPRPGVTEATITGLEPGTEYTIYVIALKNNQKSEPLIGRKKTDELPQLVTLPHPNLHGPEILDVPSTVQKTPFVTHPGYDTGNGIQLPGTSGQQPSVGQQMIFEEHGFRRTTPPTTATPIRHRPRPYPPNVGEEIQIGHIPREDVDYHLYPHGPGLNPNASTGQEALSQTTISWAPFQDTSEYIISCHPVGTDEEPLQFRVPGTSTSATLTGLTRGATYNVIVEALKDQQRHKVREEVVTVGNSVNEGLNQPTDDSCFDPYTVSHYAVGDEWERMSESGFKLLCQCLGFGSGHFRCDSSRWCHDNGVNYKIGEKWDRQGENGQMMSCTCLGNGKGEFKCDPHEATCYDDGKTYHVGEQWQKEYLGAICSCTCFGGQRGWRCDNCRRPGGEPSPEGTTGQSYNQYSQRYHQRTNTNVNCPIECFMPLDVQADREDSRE
T1 sequence (P24821 23-2201): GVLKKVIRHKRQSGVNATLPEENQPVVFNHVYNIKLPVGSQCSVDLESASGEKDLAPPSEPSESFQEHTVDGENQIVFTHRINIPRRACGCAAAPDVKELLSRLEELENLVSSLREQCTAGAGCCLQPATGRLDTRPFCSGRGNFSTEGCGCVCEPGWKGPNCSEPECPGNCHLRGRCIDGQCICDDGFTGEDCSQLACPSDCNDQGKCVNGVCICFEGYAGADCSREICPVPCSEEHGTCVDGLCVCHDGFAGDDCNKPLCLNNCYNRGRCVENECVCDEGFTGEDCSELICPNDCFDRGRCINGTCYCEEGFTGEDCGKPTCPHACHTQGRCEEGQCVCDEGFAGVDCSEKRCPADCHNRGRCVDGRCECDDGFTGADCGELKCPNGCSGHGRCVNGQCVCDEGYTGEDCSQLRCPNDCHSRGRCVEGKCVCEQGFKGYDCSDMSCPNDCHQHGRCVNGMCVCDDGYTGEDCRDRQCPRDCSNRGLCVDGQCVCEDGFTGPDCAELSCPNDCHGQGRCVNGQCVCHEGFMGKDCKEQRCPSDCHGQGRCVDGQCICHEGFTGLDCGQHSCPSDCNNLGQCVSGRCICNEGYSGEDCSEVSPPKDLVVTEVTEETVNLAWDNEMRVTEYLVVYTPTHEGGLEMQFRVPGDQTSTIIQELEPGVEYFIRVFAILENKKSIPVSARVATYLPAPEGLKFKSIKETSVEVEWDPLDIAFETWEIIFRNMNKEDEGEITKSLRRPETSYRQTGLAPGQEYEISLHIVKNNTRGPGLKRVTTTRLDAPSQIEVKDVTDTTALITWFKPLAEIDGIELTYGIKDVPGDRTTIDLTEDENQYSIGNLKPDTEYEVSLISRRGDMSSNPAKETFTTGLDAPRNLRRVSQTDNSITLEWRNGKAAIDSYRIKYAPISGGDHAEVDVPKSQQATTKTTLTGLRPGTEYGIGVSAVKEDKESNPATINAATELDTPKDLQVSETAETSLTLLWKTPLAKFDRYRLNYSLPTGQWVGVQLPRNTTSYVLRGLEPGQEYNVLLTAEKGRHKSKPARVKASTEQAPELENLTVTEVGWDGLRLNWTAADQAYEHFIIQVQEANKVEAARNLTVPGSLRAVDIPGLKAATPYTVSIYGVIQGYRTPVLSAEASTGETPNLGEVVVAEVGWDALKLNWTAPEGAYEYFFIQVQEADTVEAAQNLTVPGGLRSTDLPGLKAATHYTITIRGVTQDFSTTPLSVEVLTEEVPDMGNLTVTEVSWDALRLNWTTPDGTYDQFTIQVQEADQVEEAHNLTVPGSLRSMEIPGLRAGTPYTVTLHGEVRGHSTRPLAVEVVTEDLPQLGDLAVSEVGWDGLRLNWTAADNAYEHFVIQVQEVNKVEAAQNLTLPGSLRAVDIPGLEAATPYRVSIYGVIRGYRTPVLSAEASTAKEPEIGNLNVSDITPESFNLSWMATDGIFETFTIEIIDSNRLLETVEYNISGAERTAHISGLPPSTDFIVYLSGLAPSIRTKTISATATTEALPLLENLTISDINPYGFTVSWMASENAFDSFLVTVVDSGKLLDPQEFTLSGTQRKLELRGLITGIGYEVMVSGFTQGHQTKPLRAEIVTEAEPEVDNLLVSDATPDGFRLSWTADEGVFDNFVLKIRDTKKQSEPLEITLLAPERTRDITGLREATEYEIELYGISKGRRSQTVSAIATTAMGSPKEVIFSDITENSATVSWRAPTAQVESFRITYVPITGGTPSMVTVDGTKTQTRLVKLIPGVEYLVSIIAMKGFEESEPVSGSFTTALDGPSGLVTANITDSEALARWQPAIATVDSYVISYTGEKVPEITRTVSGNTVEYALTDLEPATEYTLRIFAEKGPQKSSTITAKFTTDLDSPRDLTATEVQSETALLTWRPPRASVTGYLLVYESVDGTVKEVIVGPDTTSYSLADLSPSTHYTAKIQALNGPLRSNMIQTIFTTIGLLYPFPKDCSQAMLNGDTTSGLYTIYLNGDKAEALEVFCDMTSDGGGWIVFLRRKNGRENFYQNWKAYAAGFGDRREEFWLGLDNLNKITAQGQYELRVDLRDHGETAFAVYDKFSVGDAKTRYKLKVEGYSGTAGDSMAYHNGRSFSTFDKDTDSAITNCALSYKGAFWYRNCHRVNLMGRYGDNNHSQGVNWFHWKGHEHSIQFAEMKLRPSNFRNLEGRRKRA
T2 sequence (P04004 20-478): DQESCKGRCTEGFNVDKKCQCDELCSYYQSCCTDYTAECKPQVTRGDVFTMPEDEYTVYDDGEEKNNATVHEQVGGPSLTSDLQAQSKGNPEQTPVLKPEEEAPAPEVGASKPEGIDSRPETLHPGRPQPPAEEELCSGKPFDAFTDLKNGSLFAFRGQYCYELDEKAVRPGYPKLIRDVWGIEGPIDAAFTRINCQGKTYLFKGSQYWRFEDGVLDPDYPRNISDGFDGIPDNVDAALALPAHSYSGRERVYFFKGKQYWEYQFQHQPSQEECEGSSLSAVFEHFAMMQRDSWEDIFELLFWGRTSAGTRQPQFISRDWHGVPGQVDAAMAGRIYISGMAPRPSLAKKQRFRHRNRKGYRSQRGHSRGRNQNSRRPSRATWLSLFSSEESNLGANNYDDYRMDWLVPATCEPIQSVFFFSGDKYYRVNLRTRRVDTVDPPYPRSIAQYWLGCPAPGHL
T3 sequence (P18510 whole entry): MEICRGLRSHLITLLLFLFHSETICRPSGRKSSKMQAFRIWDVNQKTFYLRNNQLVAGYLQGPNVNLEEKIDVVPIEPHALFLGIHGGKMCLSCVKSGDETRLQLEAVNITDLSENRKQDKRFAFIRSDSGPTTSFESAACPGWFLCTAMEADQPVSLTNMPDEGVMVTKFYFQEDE

B1: murine wild-type IL-1 receptor antagonist (IL-1Ra) (natural protein, mouse, UniProt P25085 27-178, looked up)
chain: RPSGKRPCKMQAFRIWDTNQKTFYLRNNQLIAGYLQGPNIKLEEKIDMVPIDLHSVFLGIHGGKLCLSCAKSGDDIKLQLEEVNITDLSKNKEEDKRFTFIRSEKGPTTSFESAACPGWFLCTTLEADRPVSLTNTPEEPLIVTKFYFQEDQ
notes: interleukin-1 receptor antagonist protein, mouse; also called interleukin-1 receptor antagonist
Kd (human tenascin C): 113 nM | Kd (human plasma fibronectin): 129 nM | Kd (human fibrinogen): 663 nM | Kd (human vitronectin): 73.2 nM

B2
Kd (IL-1Ra/PlGF123-141): 43.5 nM | Kd (PDGF-BB/PlGF123-141): 16.7 nM

B3: murine wild-type platelet-derived growth factor-BB (PDGF-BB) (ligand, mouse, UniProt P31240 82-190, looked up)
chain: SLGSLAAAEPAVIAECKTRTEVFQISRNLIDRTNANFLVWPPCVEVQRCSGCCNNRNVQCRASQVQMRPVQVRKIEIVRKKPIFKKATVTLEDHLACKCETIVTPRPVT
notes: platelet-derived growth factor subunit B, mouse; PDGF-BB occurs as a dimer; source: bought: Peprotech
Kd (human tenascin C): 94.3 nM | Kd (human plasma fibronectin): 67.5 nM | Kd (human fibrinogen): 206 nM | Kd (human vitronectin): 32.1 nM
